The values that follow come from PMC2998453.

Experiment [1] addresses mCAT-1, murine cationic amino acid transporter (ecotropic receptor) (mouse (endogenous in C17.2 NSCs and NIH 3T3 fibroblasts; Mus dunni fibroblasts in the infectious center assay)) (UniProt Q09143).
Experiment [2] shares this target. The source holds these as a separate data set.
Experiment [3] shares this target. The source holds these as a separate data set.

UniProt Q09143, sequence (Q09143 whole entry): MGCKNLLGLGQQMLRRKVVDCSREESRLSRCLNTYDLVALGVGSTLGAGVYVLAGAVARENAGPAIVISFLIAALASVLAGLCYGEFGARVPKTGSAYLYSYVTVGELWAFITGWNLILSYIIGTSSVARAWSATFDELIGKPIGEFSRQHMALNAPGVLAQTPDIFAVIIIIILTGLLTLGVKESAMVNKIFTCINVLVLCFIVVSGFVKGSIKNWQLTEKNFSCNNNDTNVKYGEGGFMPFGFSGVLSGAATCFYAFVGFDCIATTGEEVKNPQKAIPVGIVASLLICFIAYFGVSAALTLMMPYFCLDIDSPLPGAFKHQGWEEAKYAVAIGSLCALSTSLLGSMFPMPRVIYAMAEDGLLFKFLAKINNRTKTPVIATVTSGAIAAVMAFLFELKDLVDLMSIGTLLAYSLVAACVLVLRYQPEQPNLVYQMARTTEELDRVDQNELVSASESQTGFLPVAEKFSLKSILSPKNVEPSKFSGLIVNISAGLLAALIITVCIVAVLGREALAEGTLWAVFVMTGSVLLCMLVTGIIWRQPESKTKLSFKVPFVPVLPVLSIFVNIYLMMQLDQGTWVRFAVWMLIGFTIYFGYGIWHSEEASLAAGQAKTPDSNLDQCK

For “CasBrE SU (surface subunit of the CasBrE Env, made from the CasES vector without the TM subunit) (domain or fragment)”, in experiment [1], the superinfection interference: reduction of the titre of the ecotropic virus Fr57E on CasES-NSCs (without 4070A) against control NSCs is 1 log and the superinfection interference: reduction of the titre of the ecotropic virus Fr57E on CasES-NSCs infected with 4070A turned out to be 5 logs. In experiment [2], this substance returned an infectious center assay: CasES+4070A-NSCs on DunniAm; infectious center efficiency (foci per 100 NSCs divided by plating efficiency) of 109% and an infectious center assay: CasES+4070A-NSCs seeded on 4070A-infected dunni fibroblasts (DunniAm); vector-positive foci per 100 NSCs seeded (foci per 100 NSCs seeded) of 18. Besides, the virus titration: vector titre of CasES+4070A-NSC supernatant on 4070A-infected 3T3 cells (3T3Am, amphotropic receptor blocked) against naive 3T3 cells (orders of magnitude) in experiment [3] is more than 3.
